Key:
Assay in all cases: EC50 of free RNA motif oligo competing protein binding to immobilised probe
LSM7 = molecular target: T1, LSM7 (UniProt Q9UK45)
T1 sequence: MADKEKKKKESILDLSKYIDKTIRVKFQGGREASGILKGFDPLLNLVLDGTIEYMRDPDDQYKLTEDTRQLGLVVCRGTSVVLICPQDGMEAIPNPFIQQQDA
Outline: (§1)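 HEK293-FT lysate (2.5 mg protein/well) was pre-incubated 1 h at 4°C with free RNA oligos (0 nM to 30 μM), then 30 min at 4°C with the same 5′-amino-C6 oligos coupled to NHS-Sepharose beads. Bound proteins were quantified by label-free LC-MS/MS in three biological replicates and two independent experiments, and normalised to the water control. EC50 came from a four-parameter log-logistic fit; Kd is EC50 times a protein-dependent depletion factor.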

CMTR1 = molecular target: T2, CMTR1 (UniProt Q8N1G2)
T2 sequence: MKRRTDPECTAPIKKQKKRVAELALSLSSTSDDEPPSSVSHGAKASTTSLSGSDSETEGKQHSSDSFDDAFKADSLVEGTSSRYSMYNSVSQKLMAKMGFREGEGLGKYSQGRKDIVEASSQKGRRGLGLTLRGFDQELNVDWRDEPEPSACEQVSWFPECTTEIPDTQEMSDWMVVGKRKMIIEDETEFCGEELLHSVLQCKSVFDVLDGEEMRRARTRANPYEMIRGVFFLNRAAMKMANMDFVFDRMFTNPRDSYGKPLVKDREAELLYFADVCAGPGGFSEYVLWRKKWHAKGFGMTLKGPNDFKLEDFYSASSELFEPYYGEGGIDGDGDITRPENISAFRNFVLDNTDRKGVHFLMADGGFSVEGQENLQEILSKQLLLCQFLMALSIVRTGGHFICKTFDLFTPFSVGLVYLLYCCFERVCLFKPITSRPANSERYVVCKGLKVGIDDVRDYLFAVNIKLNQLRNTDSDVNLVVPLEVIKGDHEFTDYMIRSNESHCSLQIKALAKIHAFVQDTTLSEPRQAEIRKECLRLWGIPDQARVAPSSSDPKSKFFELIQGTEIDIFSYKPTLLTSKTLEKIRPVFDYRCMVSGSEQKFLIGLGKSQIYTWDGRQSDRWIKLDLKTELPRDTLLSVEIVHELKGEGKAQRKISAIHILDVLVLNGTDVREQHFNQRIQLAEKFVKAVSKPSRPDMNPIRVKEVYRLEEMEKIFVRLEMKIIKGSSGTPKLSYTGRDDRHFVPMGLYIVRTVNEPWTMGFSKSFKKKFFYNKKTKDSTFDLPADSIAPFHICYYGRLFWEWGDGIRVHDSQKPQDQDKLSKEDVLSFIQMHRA
Outline: as §1

CPSF3 = molecular target: T3, CPSF3 (UniProt Q9UKF6)
T3 sequence: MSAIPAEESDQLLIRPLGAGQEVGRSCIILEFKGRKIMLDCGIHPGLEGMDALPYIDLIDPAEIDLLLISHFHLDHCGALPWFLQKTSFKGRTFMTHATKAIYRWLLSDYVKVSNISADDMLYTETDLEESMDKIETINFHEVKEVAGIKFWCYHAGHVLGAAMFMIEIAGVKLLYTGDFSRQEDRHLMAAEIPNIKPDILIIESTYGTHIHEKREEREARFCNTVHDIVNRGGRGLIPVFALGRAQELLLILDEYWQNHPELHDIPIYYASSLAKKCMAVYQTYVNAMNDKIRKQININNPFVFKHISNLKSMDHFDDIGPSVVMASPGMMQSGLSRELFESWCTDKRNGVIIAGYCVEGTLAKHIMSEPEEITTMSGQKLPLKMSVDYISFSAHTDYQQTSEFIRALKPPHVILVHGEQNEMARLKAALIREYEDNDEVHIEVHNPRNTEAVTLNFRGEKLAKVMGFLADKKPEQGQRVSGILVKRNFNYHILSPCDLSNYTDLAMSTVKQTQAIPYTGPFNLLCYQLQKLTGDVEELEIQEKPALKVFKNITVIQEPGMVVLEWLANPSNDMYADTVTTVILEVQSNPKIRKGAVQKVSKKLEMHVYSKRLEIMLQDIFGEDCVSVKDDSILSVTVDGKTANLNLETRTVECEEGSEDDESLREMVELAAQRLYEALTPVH
Outline: as §1

MEX3B = molecular target: T4, MEX3B (UniProt Q6ZN04)
T4 sequence: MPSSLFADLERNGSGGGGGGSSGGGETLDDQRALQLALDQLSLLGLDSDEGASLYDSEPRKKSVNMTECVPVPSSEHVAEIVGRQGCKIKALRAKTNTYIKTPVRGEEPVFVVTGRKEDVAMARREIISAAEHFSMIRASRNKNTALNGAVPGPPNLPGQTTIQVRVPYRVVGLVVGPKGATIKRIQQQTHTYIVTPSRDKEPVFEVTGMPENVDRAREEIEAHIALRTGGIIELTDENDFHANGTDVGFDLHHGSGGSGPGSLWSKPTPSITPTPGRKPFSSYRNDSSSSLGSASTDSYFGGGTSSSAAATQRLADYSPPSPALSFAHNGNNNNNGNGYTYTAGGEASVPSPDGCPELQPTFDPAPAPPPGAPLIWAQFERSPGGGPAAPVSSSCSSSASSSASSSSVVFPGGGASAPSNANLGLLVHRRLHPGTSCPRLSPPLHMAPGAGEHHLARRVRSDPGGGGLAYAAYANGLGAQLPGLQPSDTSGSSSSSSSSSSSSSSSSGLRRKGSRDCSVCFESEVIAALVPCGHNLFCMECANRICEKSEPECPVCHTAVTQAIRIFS
Outline: as §1

Sequence	EC50 (LSM7)	EC50 (CMTR1)	EC50 (CPSF3)	EC50 (MEX3B)
AAUAAA	655 nM	298 nM	57.4 nM	1640 nM
UAUUUAU	302 nM	1200 nM	598 nM	728 nM

From the supplement of paper PMC6379048
